We go through two substances from paper PMC6298664.

For orientation: Kd means the free concentration of one partner at which half of the binding sites on the other are occupied at equilibrium, for simple one-to-one binding.

In experiment [1] the target is Spermidine N-acetyltransferase (SpeG) from Escherichia coli (Escherichia coli str. K-12 substr. MG1655) (UniProt P0A951). Briefly: SPR; SpeG (46 uM) amine-coupled; the surface exposed to 0.5 mM spermidine before the RcsB constructs were injected as analytes; 4 C; 10 mM HEPES pH 8.3, 100 mM sodium chloride; Reichert4SR; one-to-one model. A general note: In SPR one partner is held on a chip, and binding of the other changes the refractive index at the surface.

The target is the same in experiment [2]. Briefly: SPR; SpeG (46 uM) amine-coupled to a carboxymethyl dextran chip; RcsB constructs as analytes; no spermidine; 4 C; 10 mM HEPES pH 8.3, 100 mM sodium chloride; Reichert SR7500DC; one-to-one model.

Chain of UniProt P0A951 (P0A951 whole entry): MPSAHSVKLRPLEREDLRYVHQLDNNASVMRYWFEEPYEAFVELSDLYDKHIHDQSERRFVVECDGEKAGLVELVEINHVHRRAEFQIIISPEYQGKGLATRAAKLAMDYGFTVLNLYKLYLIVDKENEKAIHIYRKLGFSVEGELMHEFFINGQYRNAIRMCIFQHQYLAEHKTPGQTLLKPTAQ

“full-length RcsB from Escherichia coli (from UniProt P0DMC7 1-216) (natural protein)” came in with a Kd in experiment [1] of 128 µM.

Turning to “C-terminal DNA binding domain of RcsB (residues 128-216) (from UniProt P0DMC7 128-216) (domain or fragment)”, the dissociation constant Kd in experiment [2] stood at 67 µM; in experiment [1], 281 µM.
